# B1: V74A (1): BAK missense mutant, WT-like; in cells as mCherry fusion (protein)
# chain: MASGQGPGPPRQECGEPALPSASEEQVAQDTEEVFRSYVFYRHQQEQEAEGVAAPADPEMVTLPLQPSSTMGQAGRQLAIIGDDINRRYDSEFQTMLQHLQPTAENAYEYFTKIATSLFESGINWGRVVALLGFGYRLALHVYQHGLTGFLGQVTRFVVDFMLHHCIARWIAQRGGWVAALNLGNG
# modifications: left off: His6, C-terminal, kept
# notes: BAK missense mutant, WT-like; in cells as mCherry fusion
# Tests used:
# Format in all cases: cell-based, human
# [1] = test system: BCL2allKO HCT116 cells reconstituted with mC-BAK; test: Endpoint FACS analysis of SYTOX Green positive cells; details: average, N = 3
# Protocol: (§1) We seeded cells in 24-well (100,000 cells/well), 96-well (15,000 cells/well), or 384-well (10,000 cells/well) plates coated with 10 µg/mL fibronectin. After ≥24 h of attachment and recovery, we induced cell death with Dox (up to 1000 ng/mL) and monitored SYTOX Green (25 nM) uptake by Incucyte imaging. This dye marks cells with compromised plasma membrane integrity. mC-BAK expressed before 24 h, which coincided with detectable cell death. We monitored Incucyte imaging for up to 48 h, followed by endpoint FACS analysis to measure the extent of cell death based on SYTOX Green positive cells on FACSCalibur systems (BD Biosciences). As expected, cells with low mCherry fluorescence were refractory to cell death.
# [2] = test system: BCL2allKO HCT116 cells expressing mC-BAK and BID; test: Dox + TRAIL + CHX induced cell death by IncuCyte imaging of SYTOX Green uptake (direct activation); details: TRAIL 200 ng/mL + CHX 0.5 µg/mL added at 6 h
# Protocol: We achieved stable, constitutive expression of human BID in mC-BAK expressing BCL2allKO HCT116 by retroviral transduction based on pMX-human-BID-IRES-GFP. Amplification primers are included in Supplementary Table 4. We performed two rounds of FACS sorting gating on GFP-positive cells to enrich for populations of cells that express BID.
# For coexpression of mC-BAK + BID, we treated cells with different doses of Dox for 24 h to induce expression of mC-BAK. At 6 h, we treated cells with TRAIL (200 ng/mL) + cycloheximide (CHX, 0.5 µg/mL) to promote BID activation under conditions of protein synthesis inhibition by CHX, and continued to record Incucyte imaging of SYTOX Green uptake up to 48 h. We blocked caspase activity with qVD (40 µM).
# [3] = test system: BCL2allKO HCT116 cells reconstituted with Dox-inducible mC-BAK; test: Dox-induced cell death by IncuCyte imaging of SYTOX Green uptake (autoactivation); details: for SYTOX Green +ve counts/confluence AUC of kinetic traces: Fig 3d; for AUC (48 hr) of SYTOX Green counts/confluence: mC-BAK BCL2allKO HCT116 + Dox + qVD, average, N = 3
# Text: For mammalian cell culture experiments, we cloned the full length human BAK cDNA into pCR 2.1 TOPO vector, mutated BAK as needed, and PCR amplified the BAK gene for cloning into the BamHI and NotI sites of pRETROX mCherry vector for retroviral transduction. Amplification and mutagenesis primers are included in Supplementary Table 4. To test direct BAK activation and BAK autoactivation in cells, we produced cells stably expressing mCherry-human BAK (mC-BAK) ± human BID (BID) on a genetic background devoid of the entire BCL-2 family repertoire (all 17 BCL-2 genes), BCL2allKO HCT116, as described by the Xu Luo laboratory. We expressed WT and mutant mC-BAK using the doxycycline (Dox)-based inducible Tet-On 3G retroviral system from the pRetroX-TRE3G-Puro^R in BCL2allKO HCT116 cells expressing the Tet3G from pRetroX-Tet3G-Blast^R. We selected cells with puromycin (2.5 µg/mL) and blasticidin (2 µg/mL) starting at 2 days after retroviral transduction. To enrich for populations of cells that express mC-BAK, we treated cells with low Dox dose (25 ng/mL) and fluorescence-activated cell sorted (FACS) the mCherry positive cells. We performed the enrichment twice before cell death analysis. One caveat of our cellular system is tagging BAK with N-terminal mCherry, which may affect folding efficiency, degradation, and BAK interactome.
# as §1
molecule,measurement,setting,value
B1,flow cytometry SYTOX Green counts/confluence (48 hr),[1]; Dox 100 ng/mL,40.5
same,flow cytometry SYTOX Green counts/confluence (48 hr),[1]; Dox 1000 ng/mL,46.1667
same,cell death with Dox + TRAIL + CHX compared to Dox alone,[2],boosted the levels of cell death
same,SYTOX Green +ve counts/confluence AUC of kinetic traces,[3]; Dox 6.25 ng/mL,290.31
same,SYTOX Green +ve counts/confluence AUC of kinetic traces,[3]; Dox 6.25 ng/mL + qVD,201.143
same,SYTOX Green +ve counts/confluence AUC of kinetic traces,[3]; Dox 12.5 ng/mL,574.561
same,SYTOX Green +ve counts/confluence AUC of kinetic traces,[3]; Dox 12.5 ng/mL + qVD,218.508
same,SYTOX Green +ve counts/confluence AUC of kinetic traces,[3]; Dox 25 ng/mL,828.325
same,SYTOX Green +ve counts/confluence AUC of kinetic traces,[3]; Dox 25 ng/mL + qVD,220.818
same,SYTOX Green +ve counts/confluence AUC of kinetic traces,[3]; Dox 50 ng/mL,1653.15
same,SYTOX Green +ve counts/confluence AUC of kinetic traces,[3]; Dox 50 ng/mL + qVD,333.116
same,SYTOX Green +ve counts/confluence AUC of kinetic traces,[3]; Dox 100 ng/mL,2313.65
same,SYTOX Green +ve counts/confluence AUC of kinetic traces,[3]; Dox 100 ng/mL + qVD,342.619
same,SYTOX Green +ve counts/confluence AUC of kinetic traces,[3]; Dox 500 ng/mL,2761.33
same,SYTOX Green +ve counts/confluence AUC of kinetic traces,[3]; Dox 500 ng/mL + qVD,584.364
same,SYTOX Green +ve counts/confluence AUC of kinetic traces,[3]; Dox 1000 ng/mL,2775.53
same,SYTOX Green +ve counts/confluence AUC of kinetic traces,[3]; Dox 1000 ng/mL + qVD,699.139
same,Dox-induced cell death,[3]; IncuCyte SYTOX Green up to 48 h,induces cell death faster than I81A(3) or D83A(s) irrespective of Dox dose
same,AUC (48 hr) of SYTOX Green counts/confluence,[3]; Dox 100 ng/mL,79832.2
same,AUC (48 hr) of SYTOX Green counts/confluence,[3]; Dox 1000 ng/mL,98530.5
